Experimental data as given in paper PMC5377324.

Experiments:
Experiment in all cases: ITC
[1] = target: Atx3_(6Q)-IIC (C-terminal fragment, residues 221-373, of isoform-II Atx3, polyQ truncated to 6Q)
[2] = target: Atx3_(22Q)-IIC (C-terminal fragment, residues 221-373, of isoform-II Atx3, 22Q)
[3] = target: Atx3_(46Q)-IIC (C-terminal fragment, residues 221-373, of isoform-II Atx3, polyQ expanded to 46Q)

Kd [1] [µM]	Kd [2] [µM]	Kd [3] [µM]	Substance
50	50	50	K48-diUb (Lys48-linked di-ubiquitin) (from UniProt P0CG48 1-76) (complex)
10	10	10	P97N (N-terminal domain of P97, residues 1-213) (from UniProt P55072 1-213) (domain or fragment)
